Experimental findings from publication PMC7052193, “Nanobody-enabled monitoring of kappa opioid receptor states” (Nature Communications, 2020) are described below.

For one assay, the target named is KOR (Homo sapiens, UniProt P41145). Put plainly: BRET assay, KOR-Rluc and Nb6-mVenus: Nb6 binding / agonist-induced dissociation. The format is cell-based. For orientation: BRET reads energy transfer from a luciferase to a nearby fluorophore.
Assay [1] has as its target human KOR (Homo sapiens, UniProt P41145, D266A). The description is as above. The format is cell-based.
Assay [2] deals with T1, human KOR (Homo sapiens, UniProt P41145, D266L).
T1 construct: expressed in transfected cells; host or cells: HEK 293T
Described as above. The format is cell-based.

Assay [3] addresses human KOR (Homo sapiens, UniProt P41145, L253A). The description is as above. It counts as cell-based.
In assay [4] the target is T2, human KOR (Homo sapiens, UniProt P41145, R257A).
T2 construct: expressed in transfected cells; host or cells: HEK 293T
The assay is described as above. It counts as cell-based.

The target in assay [5] is T3, human KOR (Homo sapiens, UniProt P41145, R263A).
T3 construct: expressed in transfected cells; host or cells: HEK 293T
The description is as above. It counts as cell-based.

Assay [6] deals with human KOR (Homo sapiens, UniProt P41145, R270A). The assay is described as above. It counts as cell-based.
In assay [7] the target is T4, human KOR (Homo sapiens, UniProt P41145, R270M).
T4 construct: expressed in transfected cells; host or cells: HEK 293T
Described as above. The format is cell-based.

In assay [8] the target is T5, human KOR (Homo sapiens, UniProt P41145, R271A).
T5 construct: expressed in transfected cells; host or cells: HEK 293T
Described as above. It counts as cell-based.

Assay [9] deals with human KOR (Homo sapiens, UniProt P41145, R274A). The description is as above. The format is cell-based.
The target of a further assay is T6, 5-HT2AR (Homo sapiens, UniProt P28223).
T6 construct: expressed in transfected cells; host or cells: HEK 293T
It counts as cell-based. The following applies: wild-type 5-HT2AR.

The target in another assay is T7, ETA (Homo sapiens, UniProt P25101).
T7 construct: expressed in transfected cells; host or cells: HEK 293T
T7 sequence (P25101 21-427): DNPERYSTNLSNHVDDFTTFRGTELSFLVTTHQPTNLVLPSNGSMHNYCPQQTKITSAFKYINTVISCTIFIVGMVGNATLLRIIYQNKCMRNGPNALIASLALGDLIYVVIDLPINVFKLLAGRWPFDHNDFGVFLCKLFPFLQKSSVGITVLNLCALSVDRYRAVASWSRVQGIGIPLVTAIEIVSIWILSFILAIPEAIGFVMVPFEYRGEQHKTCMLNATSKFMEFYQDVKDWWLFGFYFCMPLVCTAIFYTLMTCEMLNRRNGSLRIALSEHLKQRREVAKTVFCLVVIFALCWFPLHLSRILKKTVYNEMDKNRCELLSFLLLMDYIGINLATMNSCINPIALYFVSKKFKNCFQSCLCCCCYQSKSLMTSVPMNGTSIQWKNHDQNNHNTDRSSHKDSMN
It counts as cell-based. The following applies: wild-type ETA.

For another assay, the system named is GPR111. Put plainly: BRET assay GPR111 / GPR111-KOR and Nb6, basal state. The format is cell-based.
A further assay has as its system GPR149. It counts as cell-based. Particulars: GPR149-KOR and Nb6.
The target of assay [10] is T8, GPR151 (Homo sapiens, UniProt Q8TDV0).
T8 construct: expressed in transfected cells; host or cells: HEK 293T
T8 sequence (Q8TDV0 1-419): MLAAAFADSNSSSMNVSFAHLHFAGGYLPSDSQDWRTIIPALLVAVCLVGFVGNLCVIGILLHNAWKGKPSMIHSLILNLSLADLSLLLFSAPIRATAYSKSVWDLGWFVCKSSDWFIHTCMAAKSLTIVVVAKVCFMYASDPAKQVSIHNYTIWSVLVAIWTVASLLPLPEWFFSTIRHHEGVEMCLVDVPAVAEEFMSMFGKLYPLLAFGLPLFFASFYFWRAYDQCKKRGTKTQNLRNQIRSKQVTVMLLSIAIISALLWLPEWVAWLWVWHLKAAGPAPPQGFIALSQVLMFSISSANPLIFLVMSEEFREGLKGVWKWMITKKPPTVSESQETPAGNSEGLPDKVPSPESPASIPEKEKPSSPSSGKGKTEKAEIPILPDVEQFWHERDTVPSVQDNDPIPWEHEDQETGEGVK
It counts as cell-based. The following applies: GPR151 and Nb6.

In assay [11] the test system is GPR151. It counts as cell-based. Particulars: GPR151-KOR and Nb6.
The target in assay [12] is T9, human KOR containing C-terminal Renilla luciferase (RLuc8) (human, UniProt P41145).
T9 construct: kappa opioid receptor, human, wild type; also called KOR-Rluc; kappa opioid receptor; source: HEK 293T, co-transfected, in live cells; not shown: RLuc8, C-terminal, kept
The assay is described as follows: FRET or BRET; kinetic BRET in HEK 293T cells co-expressing KOR-Rluc and Nb6-mVenus or Nb39-mVenus; 10 µM Sal A, then 10 µM JDTic added at the indicated times; t1/2 from one phase exponential decay. Particulars: partners not purified.

Several values for one entry are separate records, joined by “and”; a condition that tells them apart may be missing. Identical values can stand only once.

T2 sequence (P41145 whole entry R257A): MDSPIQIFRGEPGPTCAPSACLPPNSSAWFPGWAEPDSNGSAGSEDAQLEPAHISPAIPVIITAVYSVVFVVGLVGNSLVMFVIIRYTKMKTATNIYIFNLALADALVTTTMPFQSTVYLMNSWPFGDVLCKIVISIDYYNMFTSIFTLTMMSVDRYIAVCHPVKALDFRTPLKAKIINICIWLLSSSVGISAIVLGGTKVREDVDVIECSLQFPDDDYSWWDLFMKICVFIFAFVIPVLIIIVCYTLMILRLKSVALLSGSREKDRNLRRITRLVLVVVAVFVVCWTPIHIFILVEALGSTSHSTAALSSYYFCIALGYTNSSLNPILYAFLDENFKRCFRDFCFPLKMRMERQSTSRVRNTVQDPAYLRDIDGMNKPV
Sequence of KOR (P41145 whole entry): as the sequence (P41145 whole entry R257A) above, with A257R counted along it
T3 sequence (P41145 whole entry R263A): as the sequence (P41145 whole entry R257A) above, with A257R, R263A counted along it
T4 sequence (P41145 whole entry R270M): as the sequence (P41145 whole entry R257A) above, with A257R, R270M counted along it
T5 sequence (P41145 whole entry R271A): as the sequence (P41145 whole entry R257A) above, with A257R, R271A counted along it
T1 sequence (P41145 whole entry D266L): as the sequence (P41145 whole entry R257A) above, with A257R, D266L counted along it
T9 sequence (P41145 whole entry): as the sequence (P41145 whole entry R257A) above, with A257R counted along it
T6 sequence (P28223 whole entry): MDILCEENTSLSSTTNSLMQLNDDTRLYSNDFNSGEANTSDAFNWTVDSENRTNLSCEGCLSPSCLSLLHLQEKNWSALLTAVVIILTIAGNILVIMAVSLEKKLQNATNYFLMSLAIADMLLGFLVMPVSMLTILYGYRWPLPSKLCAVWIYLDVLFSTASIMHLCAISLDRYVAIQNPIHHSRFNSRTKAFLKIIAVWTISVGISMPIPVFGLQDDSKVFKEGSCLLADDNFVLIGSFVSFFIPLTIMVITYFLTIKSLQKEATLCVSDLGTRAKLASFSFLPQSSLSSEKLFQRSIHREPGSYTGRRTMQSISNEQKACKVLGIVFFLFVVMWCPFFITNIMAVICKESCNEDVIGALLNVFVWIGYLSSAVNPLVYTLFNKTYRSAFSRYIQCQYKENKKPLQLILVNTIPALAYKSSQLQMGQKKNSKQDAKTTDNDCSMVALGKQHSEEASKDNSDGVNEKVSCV

B1: Nb6-mVenus (VHH)
VHH: QVQLQESGGGLVQAGESLRLSCAASGTIFRLYDMGWYRRVSGNQRELVASITSGGSTKYGDSVKGRFTISRDNAKNTVYLQMSSLKPEDTAVYYCNAEYRTGIWEELLDGWGQGTQVTVSS
notes: as the chain of m2, nanobody chain of PDB 6VI4; source: HEK 293T, co-transfected, in live cells; not shown: mVenus, C-terminal, kept
For B1, the “Net BRET, KOR mutations with Nb6, source data Figure 3b” value in the assay with KOR was 1.21 and 1.208 and 1.235 and 1.249 and 1.256 and 1.272; with human KOR [1] it was 0.1429 and 0.1064 and 0.08886 and 0.09293; with human KOR [2] it was 0.05761 and 0.05183 and 0.0517 and 0.0557 and 0.08302 and 0.08918; in the assay with human KOR [3] it was 1.189 and 1.193 and 1.2037 and 1.27 and 1.206 and 1.301; with human KOR [4] it was 1.007 and 0.9978 and 1.013 and 1.028 and 1.043 and 1.085; with human KOR [5], 0.9862 and 0.9845 and 1.038 and 1.045 and 1.021 and 1.043. Besides, the “Net BRET, KOR mutations with Nb6, source data Figure 3b” value in the assay with human KOR [6] was 0.07102 and 0.06841 and 0.07532 and 0.07378 and 0.08027 and 0.09204; with human KOR [7] it was 0.05686 and 0.05346 and 0.04737 and 0.04878 and 0.05049 and 0.05323; with human KOR [8], 1.2246 and 1.2 and 1.237 and 1.199 and 1.227 and 1.2457; in the assay with human KOR [9], 1.098 and 1.114 and 1.1115 and 1.116 and 1.123 and 1.128. The “interaction with Nb6 in the BRET assay” value in the assay with 5-HT2AR and in the assay with ETA was “did not display measurable interaction” each time. In addition, the “BRET receptor and Nb6 in basal state, source data Figure 5e” value in the assay with GPR111 is 96.3553 and 106.675 and 85.5388 and 88.3471; in the assay with GPR149 it was 100.397 and 94.0625 and 97.7156 and 109.725; with GPR151 [10], 4.933 and 5.929 and 5.0734 and 5.659; in the assay on GPR151 [11], 96.9506 and 102.894 and 103.581 and 99.837. Besides, in assay [12], the “t1/2 of the decrease in Nb6-KOR BRET after the agonist Sal A” value was found to be 0.833 ± 0.167 min. Further, the “t1/2 of the increase of the BRET ratio after JDTic (following Sal A)” value in assay [12] worked out at 1.25 ± 0.2 min.
